Columns and labels:
[1] = target: T1, FLAG-BRAF (1-766) (Homo sapiens (Human), UniProt P15056 1-766); test: co-immunoprecipitation from M7609 cell lysate on anti-FLAG M2 magnetic beads, Western blot with anti-GSTP1
T1 construct: Expressed in M7609 cells from plasmid pCV6-Myc-DDK-BRAF (OriGene Technologies); also called full-length BRAF protein; BRAF with the extension; not shown: FLAG tag (DDK tag) at the C-terminus
Experimental: (§1) The transfected cells were used for coimmunoprecipitation. The cells were lysed by incubation in 0.5% NP-40 lysis buffer (0.5% NP-40, 20 mM HEPES pH 7.4, 150 mM NaCl, 1 mM MgCl₂, 1 mM EGTA, 10% glycerol, Complete, Mini (Roche Diagnostics) and PhosSTOP (Roche Diagnostics)) on ice for 30 min. Centrifugation was performed to give a supernatant as a cell lysate. The cell lysates obtained from the samples and containing the same amount of protein were each incubated with anti-FLAG M2 magnetic beads (Sigma-Aldrich) at 4° C. for 2 h to overnight, so that each FLAG-tagged protein was attached to the beads. The beads were washed four times with 0.5% NP-40 lysis buffer.
(§2) Each sample for western blotting was prepared from the beads obtained after the coimmunoprecipitation, and then subjected to SDS-PAGE for protein separation. The separated protein was transferred to a PVDF membrane. The membrane was incubated with a primary antibody solution and then washed. The primary antibody used was an anti-GSTP1 antibody (Medical & Biological Laboratories Co., Ltd.), an anti-FLAG antibody (F3165, Sigma-Aldrich), or an anti-GAPDH antibody (Abcam plc.). The membrane was then incubated with a secondary antibody (goat secondary antibody to rabbit or mouse IgG) solution and then washed. The signal on the membrane was visualized using ECL or ECL prime Western blotting detection system (GE Healthcare). […]

[2] = target: T2, FLAG-CRAFΔN (193-648) (human, UniProt P04049 193-648); test: as above
T2 construct: Expressed in M7609 cells from a pCMV6-Entry vector; also called CRAF protein with a deletion at the N-terminal moiety; not shown: FLAG tag at the C-terminus (plasmid pCMV6-Myc-DDK-CRAFΔN)
Experimental: as §1, §2

T1 sequence (P15056 whole entry): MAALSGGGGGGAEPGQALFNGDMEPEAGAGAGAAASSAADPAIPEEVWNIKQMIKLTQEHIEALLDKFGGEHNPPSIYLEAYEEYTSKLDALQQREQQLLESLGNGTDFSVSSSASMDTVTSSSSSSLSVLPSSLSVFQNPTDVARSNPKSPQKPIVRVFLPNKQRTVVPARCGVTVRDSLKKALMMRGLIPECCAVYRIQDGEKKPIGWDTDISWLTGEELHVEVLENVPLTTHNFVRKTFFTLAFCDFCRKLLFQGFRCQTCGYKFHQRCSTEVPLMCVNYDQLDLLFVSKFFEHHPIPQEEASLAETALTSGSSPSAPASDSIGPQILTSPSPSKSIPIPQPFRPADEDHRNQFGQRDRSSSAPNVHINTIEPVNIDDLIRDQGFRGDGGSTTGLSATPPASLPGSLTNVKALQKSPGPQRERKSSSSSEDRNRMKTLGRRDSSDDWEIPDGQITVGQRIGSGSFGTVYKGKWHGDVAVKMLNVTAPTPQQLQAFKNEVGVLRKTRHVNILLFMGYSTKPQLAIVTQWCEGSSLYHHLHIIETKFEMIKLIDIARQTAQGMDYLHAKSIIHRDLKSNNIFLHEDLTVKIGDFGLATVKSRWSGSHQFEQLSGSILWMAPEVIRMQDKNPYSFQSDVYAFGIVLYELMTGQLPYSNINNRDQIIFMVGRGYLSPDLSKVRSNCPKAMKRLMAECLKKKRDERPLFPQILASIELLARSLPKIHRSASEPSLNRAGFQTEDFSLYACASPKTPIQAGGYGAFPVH

B1: GSTP1 (endogenous, in lysates of KRAS mutation-positive colon cancer cells) (enzyme)
chain: PPYTVVYFPVRGRCAALRMLLADQGQSWKEEVVTVETWQEGSLKASCLYGQLPKFQDGDLTLYQSNTILRHLGRTLGLYGKDQQEAALVDMVNDGVEDLRCKYISLIYTNYEAGKDDYVKALPGQLKPFETLLSQNQGGKTFIVGDQISFADYNLLDLLLIHEVLAPGCLDAFPLLSAYVGRLSARPKLKAFLASPEYVNLPINGNGKQ
notes: also called glutathione S-transferase pi; endogenous GSTP1
B1: no binding [1]; no binding [2].
